Results taken from patent US20200140512A1 (Xencor, published 2020).

What was measured:
human PD-1-His [1] = biological target: T1, human PD-1-His (human, UniProt Q15116 25-167, limits assumed); experiment: Octet (Example 7A, told again)
T1 construct: not shown: His tag

human PD-1-His [2] = biological target: T1, human PD-1-His; experiment: Octet, antibody captured on anti-human Fc (AHC) biosensors, dipped into multiple concentrations of PD-1-His
[3] = biological target: T2, PD-1 (antigen of the Octet affinity measurements of Example 9 and of the affinities quoted afterwards) (UniProt Q15116 25-167, limits assumed); experiment: Octet affinity screen, bivalent IgG1 format
T2 construct: most likely human PD-1-His
T2 sequence (Q15116 25-167 limits assumed): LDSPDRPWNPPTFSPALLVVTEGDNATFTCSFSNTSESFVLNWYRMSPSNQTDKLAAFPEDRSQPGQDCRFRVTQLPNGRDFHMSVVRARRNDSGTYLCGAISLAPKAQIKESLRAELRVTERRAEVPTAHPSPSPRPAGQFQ

human PD-1-His [4] = biological target: T1, human PD-1-His; experiment: Octet, antibody on AHC biosensors, multiple concentrations of PD-1-His

T1 sequence (Q15116 25-167 limits assumed): as above

| Binder | binding result (human PD-1-His [2]) | fold improved affinity over WT [3] | also measured |
| --- | --- | --- | --- |
| XENP28536 (bivalent mAb based on humanized mAb C, mAb C[PD-1]_H1L1) (antibody, human IgG1, V domains shown, also called WT) VH: EVQLVESGGGLVQPGGSLRLSCAASGFTFSSFGMHWVRQAPGKGLEWVSYISSGSSIIYYADSVKGRFTISRDNAKNSLYLQMNSLRAEDTAVYYCARGGRLVWSPDYWGQGTLVTVSS VL: DIVMTQSPDSLAVSLGERATINCKSSQSLLNSGNQKNYLTWYQQKPGQPPKLLIYWASTRESGVPDRFTGSGSGTDFTLTISSLQAEDVAVYYCQNDYSYPFTFGSGTKLEIK | – | – | binding result (human PD-1-His [1]): binds |
| mAb C[PD-1]_H1_L1.1 (bivalent IgG1 format with E233P/L234V/L235A/G236_/S267K ablation variants) (antibody, V domains shown, Human IgG1 with ablation variants; copies: 2 + 2) VH: EVQLVESGGGLVQPGGSLRLSCAASGFTFSSFGMHWVRQAPGKGLEWVSYISSGSSIIYYADSVKGRFTISRDNAKNSLYLQMNSLRAEDTAVYYCARGGRLVWSPDYWGQGTLVTVSS VL: DIVMTQSPDSLAVSLGERATINCKSSQSLLHSGNQKNYLTWYQQKPGQPPKLLIYWASTRESGVPDRFTGSGSGTDFTLTISSLQAEDVAVYYCQNDYSYPFTFGSGTKLEIKR | – | 2 fold | – |
| mab_C[PD-1]_H1_L1.3 (bivalent IgG1 format with E233P/L234V/L235A/G236_/S267K ablation variants) (antibody, V domains shown, Human IgG1 with ablation variants; copies: 2 + 2) VH: EVQLVESGGGLVQPGGSLRLSCAASGFTFSSFGMHWVRQAPGKGLEWVSYISSGSSIIYYADSVKGRFTISRDNAKNSLYLQMNSLRAEDTAVYYCARGGRLVWSPDYWGQGTLVTVSS VL: DIVMTQSPDSLAVSLGERATINCKSSQSLLSSGNQKNYLTWYQQKPGQPPKLLIYWASTRESGVPDRFTGSGSGTDFTLTISSLQAEDVAVYYCQNDYSYPFTFGSGTKLEIKR | – | > 2 fold | – |
| XENP28519 (bivalent mAb based on humanized mAb A) (antibody, human IgG1, kappa, V domains shown, also called anti-PD-1 mAb XENP28519) VH: QVQLQESGPGLVKPSQTLSLTCTVSGHSITSDYAWNWIRQPPGKKLEWIGYISYSGYTTYNPSLKSRVTISRDTSKNQFSLKLSSVTAADTAVYFCARDLDYGPWFAYWGQGTLVTVSS VL: DIQMTQSPSSLSASVGDRVTITCRASENIHNYLAWYQQKPGKSPKLLVYNVKTLADGVPSRFSGSGSGTDYTLTISSLQPEDFATYYCQHFWSSPWTFGGGTKVEIKR | – | – | binding result (human PD-1-His [4]): binds |

Continued, in another order:

| binding result (human PD-1-His [2]) | fold improved affinity over WT [3] | Binder | also measured |
| --- | --- | --- | --- |
| no binding | – | XENP28538 (humanized variant of anti-PD-1 mAb C, bivalent human IgG1) (antibody, V domains shown, Human IgG1 with E233P/L234V/L235A/G236del/S267K) VH: EVQLVESGGGLVKPGGSLRLSCAASGFTFSSFGMHWVRQAPGKGLEWVGYISSGSSIIYYADPVKGRFTISRDNSKNTLYLQMNSLKTEDTAVYYCARGGRLVWSPDYWGQGTLVTVSS VL: DIVMTQSPDSLAVSLGERATINCKSSQSLLNSGNQKNYLTWYQQKPGQPPKLLIYWASTRESGVPDRFTGSGSGTDFTLTISSLQAEDVAVYYCQNDYSYPFTFGSGTKLEIKR | – |
| no binding | – | XENP28539 (humanized variant of anti-PD-1 mAb C, bivalent human IgG1) (antibody, V domains shown, Human IgG1 with E233P/L234V/L235A/G236del/S267K) VH: EVQLVESGGGLVKPGGSLRLSCAASGFTFSSFGMHWVRQAPGKGLEWVGYISSGSSIIYYADPVKGRFTISRDNSKNTLYLQMNSLKTEDTAVYYCARGGRLVWSPDYWGQGTLVTVSS VL: DIVMTQSPLSLPVTPGEPASISCRSSQSLLNSGNQKNYLTWYLQKPGQPPQLLIYWASTRESGVPDRFTGSGSGTDFTLKISRVEAEDVGVYYCQNDYSYPFTFGSGTKLEIKR | – |
